Measured values reported in article PMC4882459 (The Journal of Biological Chemistry, 2016).

Target: T1, C1q (human, UniProt P02745 23-245; P02746 28-253; P02747 29-245)
T1 construct: also called human C1q; purified C1q; source: bought: Calbiochem (purified); also endogenous, human serum; copies: + +
Test: ELISA; C1q binding assay: ES-62, PCh-BSA or CWPS coated to give equivalent CRP binding; CRP 0.4 ug/ml added, then purified C1q at 0, 0.2, 2.0 and 5.0 ug/ml, 1 h at room temperature; detected with anti-C1q
Conditions: both partners purified

T1 sequence (P02745 23-245, chain 1 of 3): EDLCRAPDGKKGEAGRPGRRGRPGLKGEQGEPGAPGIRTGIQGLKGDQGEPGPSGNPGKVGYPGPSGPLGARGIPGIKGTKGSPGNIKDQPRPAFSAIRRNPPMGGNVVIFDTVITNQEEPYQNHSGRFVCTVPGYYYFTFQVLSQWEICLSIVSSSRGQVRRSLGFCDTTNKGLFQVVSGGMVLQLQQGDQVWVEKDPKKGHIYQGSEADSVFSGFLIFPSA
T1 sequence (P02746 28-253, chain 2 of 3): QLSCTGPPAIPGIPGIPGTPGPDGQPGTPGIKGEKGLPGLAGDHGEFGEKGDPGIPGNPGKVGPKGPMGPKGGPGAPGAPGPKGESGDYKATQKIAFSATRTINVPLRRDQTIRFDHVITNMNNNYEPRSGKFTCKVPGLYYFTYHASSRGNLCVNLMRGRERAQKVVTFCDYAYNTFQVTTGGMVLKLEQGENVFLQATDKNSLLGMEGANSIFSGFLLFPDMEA
T1 sequence (P02747 29-245, chain 3 of 3): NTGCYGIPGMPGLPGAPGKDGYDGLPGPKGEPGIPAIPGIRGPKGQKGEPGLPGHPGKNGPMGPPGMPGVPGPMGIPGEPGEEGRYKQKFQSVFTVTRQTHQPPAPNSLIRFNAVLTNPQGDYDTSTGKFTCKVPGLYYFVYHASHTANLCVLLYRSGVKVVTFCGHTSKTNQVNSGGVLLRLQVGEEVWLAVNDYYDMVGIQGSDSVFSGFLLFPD

B1: C-reactive protein (native, human) (natural protein)
chain: QTDMSRKAFVFPKESDTSYVSLKAPLTKPLKAFTVCLHFYTELSSTRGYSIFSYATKRQDNEILIFWSKDIGYSFTVGGSEILFEVPEVTVAPVHICTSWESASGIVEFWVDGKPRVRKSLKKGYTVGAEASIILGQEQDSFGGNFEGSQSLVGDIGNVNMWDFVLSPDEINTIYLGGPFSPNVLNWRALKYEVQGEVFTKPQLWP
notes: C-reactive protein, human, native pentamer of subunits of ~25 kD; Used as purified protein, as purified protein added to diluted serum, and as the endogenous protein of normal human serum; also called CRP; native CRP; source: also endogenous, normal human serum
- binding result: binds
